EP4786496A1 (Nanjing Iaso Biotechnology Co., Ltd., dated 2026)

What was measured:
[1] = biological target: T1, BAFF-R on the surface of BAFF-R-positive cells (K562-BAFF-R, NALM6, RS4, MEC1, JEKO1) (human, UniProt Q96RJ3 1-184); assay: flow cytometry, phage on K562-BAFF-R and NALM6 cells
T1 construct: The cell line is named under assay or readout of each row; K562-BAFF-R overexpresses BAFF-R; the others are human tumour lines that carry it natively; also called K562-BAFF-R cells; RS4-luc
T1 sequence: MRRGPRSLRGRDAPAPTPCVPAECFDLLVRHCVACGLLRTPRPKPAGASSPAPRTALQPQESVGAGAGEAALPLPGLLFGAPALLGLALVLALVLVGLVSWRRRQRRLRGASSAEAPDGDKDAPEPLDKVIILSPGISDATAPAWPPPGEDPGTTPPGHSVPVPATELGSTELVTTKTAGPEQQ

[2] = biological target: T2, Recombinant biotinylated Human BAFF-R Protein (KACTUS, BAFF-R-HM401) (human, UniProt Q96RJ3 7-71, limits assumed, biotinylated (site not stated)); assay: ELISA, antigen coated on plate, anti-human IgG HRP
T2 construct: Bought protein; treated as one product; also called BAFF-R-his-Bio; BAFF-R-Bio-his; not shown: His tag
T2 sequence: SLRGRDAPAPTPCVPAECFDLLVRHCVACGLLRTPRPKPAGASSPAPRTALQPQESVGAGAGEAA

[3] = biological target: T3, BAFFR-cyno-His (BAF-CM10R, KACTUS) (cynomolgus, UniProt Q96RJ3 7-71 (human entry), limits assumed); assay: ELISA, antigen coated on plate, anti-human IgG HRP
T3 construct: Bought protein; also called Cyno BAFF-R; cynomolgus BAFF-R; not shown: His tag

[4] = biological target: T4, BAFFR-mouse-rFc (50353-M31H, Sino) (mouse, UniProt Q9D8D0 1-71); assay: ELISA, antigen coated on plate, anti-human IgG HRP
T4 construct: Bought protein; also called Mouse BAFF-R; not shown: rFc
T4 sequence: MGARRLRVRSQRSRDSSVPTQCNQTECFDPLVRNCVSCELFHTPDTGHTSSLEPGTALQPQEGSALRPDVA

[5] = biological target: T5, His-tagged human BAFF-R antigen (BAR-H52H3, Acro) (human, UniProt Q96RJ3 7-71, limits assumed); assay: BLI (ForteBio Octet), His-tagged antigen on HIS1K sensor, antibody in solution
T5 construct: Bought protein used in BLI; not shown: His tag
T5 sequence: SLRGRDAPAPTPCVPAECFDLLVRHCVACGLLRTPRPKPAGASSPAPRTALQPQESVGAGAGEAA

[6] = biological target: T6, KACTUS-CD19-Fc (Recombinant biotinylated Human CD19 Protein, KACTUS CD2-HE121) (human, UniProt P15391 20-291, biotinylated (site not stated)); assay: phage ELISA
T6 construct: Bought unrelated antigen; not shown: Fc
T6 sequence (looked up): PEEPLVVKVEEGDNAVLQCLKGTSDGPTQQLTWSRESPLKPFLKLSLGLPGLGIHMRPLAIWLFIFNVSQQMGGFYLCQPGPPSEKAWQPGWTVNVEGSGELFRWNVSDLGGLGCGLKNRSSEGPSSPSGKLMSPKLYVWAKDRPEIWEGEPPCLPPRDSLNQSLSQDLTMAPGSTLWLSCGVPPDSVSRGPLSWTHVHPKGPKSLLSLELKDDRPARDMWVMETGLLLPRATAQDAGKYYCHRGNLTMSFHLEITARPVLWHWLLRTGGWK

[7] = biological target: T7, Streptavidin (Pierce, 21125) (UniProt P22629 37-163, limits assumed); assay: phage ELISA
T7 construct: Control antigen of the ELISA; also called SA; control protein SA
T7 sequence (P22629 37-163 limits assumed): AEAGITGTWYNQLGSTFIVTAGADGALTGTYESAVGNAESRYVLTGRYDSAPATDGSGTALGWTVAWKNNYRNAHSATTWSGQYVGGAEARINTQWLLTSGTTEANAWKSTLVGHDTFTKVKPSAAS

[8] = biological target: T8, ACRO-CD70-his (Biotinylated Human CD27 Ligand ,His,Avitag; ACRObiosystem CDL-H82Q9) (human, UniProt P32970 39-193, limits assumed, biotinylated (Avitag)); assay: phage ELISA
T8 construct: Bought unrelated antigen; not shown: His tag and Avitag
T8 sequence (looked up): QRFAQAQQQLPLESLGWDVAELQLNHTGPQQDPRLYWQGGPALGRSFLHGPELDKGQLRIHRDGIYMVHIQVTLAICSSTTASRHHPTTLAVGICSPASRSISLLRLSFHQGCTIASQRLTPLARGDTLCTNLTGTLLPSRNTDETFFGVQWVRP

B1: VAY736 positive control phage antibody clone (scFv)
scFv: QVQLQQSGPGLVKPSQTLSLTCAISGDSVSSNSAAWGWIRQSPGRGLEWLGRIYYRSKWYNSYAVSVKSRITINPDTSKNQFSLQLNSVTPEDTAVYYCARYQWVPKIGVFDSWGQGTLVTVSSGGGGSGGGGSGGGGSDIVLTQSPATLSLSPGERATLSCRASQFILPEYLSWYQQKPGQAPRLLIYGSSSRATGVPARFSGSGSGTDFTLTISSLEPEDFAVYYCQQFYSSPLTFGQGTKVEIK
notes: also called VAY736 antibody
binding result [1]: binds

B2: Clone 5 monoclonal antibody with Fc comprising S228P/L235E (05VH-hFc PE) (antibody, human IgG4 S228P, V domains shown)
VH: EVQLVESGGGVVQPGRSLRLTCAASGFTFSTSGMYWIRQAPGKGLEWVSYISSSSSTIYYADSVKGRFTISRDNSKNTLYLQMNSLRAEDTAVYYCVTQSCGAGKCYPGVWGQGTTVTVSS
notes: Single-domain VH fused to a human Fc, made in CHOS cells; also called Clone 05; clone 05 monoclonal antibody
EC50 [2]: 0.965 nM | EC50 [3]: 1.91 nM | EC50 [4]: 3.4 nM | Kd [5]: 2.63 nM | koff [5]: 0.00163 s⁻¹ | kon [5]: 622000 M⁻¹ s⁻¹

B3: Clone 5 (monoclonal phage antibody) (VHH)
VHH: EVQLVESGGGVVQPGRSLRLTCAASGFTFSTSGMYWIRQAPGKGLEWVSYISSSSSTIYYADSVKGRFTISRDNSKNTLYLQMNSLRAEDTAVYYCVTQSCGAGKCYPGVWGQGTTVTVSS
notes: also called 05; 05VH
binding result [6]: no binding | binding result [7]: no binding | binding result [8]: no binding

B4: Clone 1 (monoclonal phage antibody) (scFv, V domains shown)
VH: EVQLVESGAEVKKPGASVKVSCKASGYTFTSYGISWVRQAPGQGLEWMGWISAYNGNTNYAQKLQGRVTMTTDTSTSTAYMELRSLRSDDTAVYYCARNTYYYDSSGYPNDAFDIWGQGTTVTVSS
VL: DIQMTQSPSSLSASVGDRVTITCRASQKISSYLNWYQQKPGKAPKLLIYAASSLQSGVPSRFSGSGSGADFTLTISSLQPEDFATYYCQQSYSPPTTFGGGTKVDIKR
notes: also called 01
binding result [6]: no binding | binding result [7]: no binding | binding result [8]: no binding
